The record followed here is publication PMC2002509, “Site-Directed Mutations in the C-Terminal Extension of Human αB-Crystallin Affect Chaperone Function and Block Amyloid Fibril Formation” (PLoS ONE, 2007).

Positions count from the first letter of the chain named. In names and notes the source's numbering stands.

Series [1] deals with the molecule itself. As to the kind of experiment: SEC; size-exclusion HPLC, Phenomenex BioSep SEC S4000 column; mobile phase 50 mM sodium phosphate buffer, pH 7.2; 10 µL of a 10 mg/mL sample, 0.5 mL/min; calibrated with mass standards; self-association into oligomers. (In general: In gel filtration, larger molecules generally elute earlier.)
Series [2] deals with insulin B-chain (bovine pancreas insulin reduced with DTT) (bovine, UniProt P01317 25-54). Nature of the series: cell-based or functional assay.
Chain of insulin B-chain (bovine pancreas insulin reduced with DTT) (P01317 25-54): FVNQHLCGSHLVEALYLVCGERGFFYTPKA

B1: I159A/I161A αB-crystallin (natural protein, human, UniProt P02511 1-175, looked up)
chain: MDIAIHHPWIRRPFFPFHSPSRLFDQFFGEHLLESDLFPTSTSLSPFYLRPPSFLRAPSWFDTGLSEMRLEKDRFSVNLDVKHFSPEELKVKVLGDVIEVHGKHEERQDEHGFISREFHRKYRIPADVDPLTITSSLSSDGVLTVNGPRKQVSGPERTAPATREEKPAVTAAPKK
notes: αB-crystallin, human, SwissProt P02511, with I159A and I161A (I-X-I motif); ESI-MS mass 20074.4 Da; The measured mass fits the whole untagged protein with both changes; also called I159A/I161A mutant; source: dialyzed against 50 mM phosphate buffer
On to B1, for which the binding result in series [1] was “binds”. The “decrease in chaperone assay: percentage protection against DTT-induced precipitation of the insulin B-chain (light scattering at 340 nm, 37°C, 1.0:0.14 molar ratio of insulin:αB-crystallin, after 90 …)” value in series [2] stood at 68%.

B2: E164A/E165A αB-crystallin (natural protein, human, UniProt P02511 1-175, looked up)
chain: B1 chain with A159I, A161I, E164A, E165A
notes: αB-crystallin, human, SwissProt P02511, with E164A and E165A; ESI-MS mass 20043.0 Da; The measured mass fits the whole untagged protein with both changes; also called E164A/E165A mutant
Take B2: the binding result in series [1] is on record as “binds”.

B3: K175L αB-crystallin (natural protein, human, UniProt P02511 1-175, looked up)
chain: B1 chain with A159I, A161I, K175L
notes: αB-crystallin, human, SwissProt P02511, with K175L; ESI-MS mass 20143.9 Da; The measured mass fits the whole untagged protein with the change; also called K175L mutant
As for B3, the binding result in series [1] is given as “binds”.

B4: Wild-type human αB-crystallin (natural protein, UniProt P02511 1-175, looked up)
chain: B1 chain with A159I, A161I
notes: αB-crystallin, human, SwissProt P02511; Polydisperse oligomer; also called αB-WT; wild-type αB-crystallin
Regarding B4, in series [1], the binding result is given as “binds”.

B5: K174A/K175A αB-crystallin (natural protein, human, UniProt P02511 1-175, looked up)
chain: B1 chain with A159I, A161I, K174A, K175A
notes: αB-crystallin, human, SwissProt P02511, with K174A and K175A; ESI-MS mass 20044.8 Da; The measured mass fits the whole untagged protein with both lysines changed to alanine, although the printed primer reads GCG AAG; also called K174A/K175A mutant
Turning to B5, in series [1], the binding result is listed as “binds”.
